Source: article PMC8944867 (Proceedings of the National Academy of Sciences of the …, 2022)

What was measured:
[1] = molecular target: T1, IpaH1.4 LRR domain (S. flexneri, UniProt A0A0H2USG1 38-283); experiment: ITC
T1 sequence: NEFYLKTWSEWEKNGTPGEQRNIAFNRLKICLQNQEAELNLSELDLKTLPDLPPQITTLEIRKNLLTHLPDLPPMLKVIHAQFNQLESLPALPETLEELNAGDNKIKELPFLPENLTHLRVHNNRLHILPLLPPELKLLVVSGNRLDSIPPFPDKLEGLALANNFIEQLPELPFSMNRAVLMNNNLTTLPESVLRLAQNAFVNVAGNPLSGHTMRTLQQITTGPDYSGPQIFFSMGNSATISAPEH

[2] = molecular target: T2, HOIP UBA domain (human, UniProt Q96EP0 480-636); experiment: ITC
T2 sequence: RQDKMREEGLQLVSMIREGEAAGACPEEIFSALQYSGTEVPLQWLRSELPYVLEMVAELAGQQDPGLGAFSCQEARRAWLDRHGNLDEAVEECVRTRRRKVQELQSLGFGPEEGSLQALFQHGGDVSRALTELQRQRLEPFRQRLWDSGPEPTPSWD

B1: HOIL-1L UBL domain (domain or fragment)
chain: QDIRLWVSVEDAQMHTVTIWLTVRPDMTVASLKDMVFLDYGFPPVLQQWVIGQRLARDQETLHSHGVRQNGDSAYLYLLSARN
Binder B1 has a Kd [1] of 10.7 µM and a Kd [2] of 3.9 ± 0.4 µM.
